The values below come from PMC6377682 (2019).

B1: PP1α^301-330 C-tail peptide [human] / human ASPP2^920-1120 [human] (parent complex)
chain 1: KNKGKYGQFSGLNPGGRPITPPRNSAKAKK
chain 2: MRVKFNPLALLLDSSLEGEFDLVQRIIYEVDDPSLPNDEGITALHNAVCAGHTEIVKFLVQFGVNVNAADSDGWTPLHCAASCNNVQVCKFLVESGAAVFAMTYSDMQTAADKCEEMEEGYTQCSQFLYGVQEKMGIMNKGVIYALWDYEPQNDDELPMKEGDCMTIIHREDEDEIEWWWARLNDKEGYVPRNLLGLYPRI
B2: human ASPP2^920-1120 [human] / PP1α^301-330 C-tail peptide [human] (parent complex)
chain 1: B1 chain 2
chain 2: B1 chain 1
B3: human ASPP1^882-1090 [human] / human PP1β^6-327 [human] (parent complex)
chain 1: LRVRFNPLALLLDASLEGEFDLVQRIIYEVEDPSKPNDEGITPLHNAVCAGHHHIVKFLLDFGVNVNAADSDGWTPLHCAASCNSVHLCKQLVESGAAIFASTISDIETAADKCEEMEEGYIQCSQFLYGVQEKLGVMNKGVAYALWDYEAQNSDELSFHEGDALTILRRKDESETEWWWARLGDREGYVPKNLLGLYPRIKPRQRTLA
chain 2: LNVDSLITRLLEVRGCRPGKIVQMTEAEVRGLCIKSREIFLSQPILLELEAPLKICGDIHGQYTDLLRLFEYGGFPPEANYLFLGDYVDRGKQSLETICLLLAYKIKYPENFFLLRGNHECASINRIYGFYDECKRRFNIKLWKTFTDCFNCLPIAAIVDEKIFCCHGGLSPDLQSMEQIRRIMRPTDVPDTGLLCDLLWSDPDKDVQGWGENDRGVSFTFGADVVSKFLNRHDLDLICRAHQVVEDGYEFFAKRQLVTLFSAPNYCGEFDNAGGMMSVDETLMCSFQILKPSEKKAKYQYGGLNSGRPVTPPRTANPPKKR
B4: human ASPP2^920-1120 [human] / human PP1β^6-327 [human] (parent complex)
chain 1: B1 chain 2
chain 2: B3 chain 2

One assay covers variants of B1. The experiment in a line: ITC. (In general: In ITC the heat of successive injections is recorded.)
With chain 1 K29A, the dissociation constant (Kd) stood at 342 nM. Turning to chain 1 K27A, the Kd worked out at 520 nM. With chain 1 K30A, the Kd is 326 nM.

In the next assay the parent is B2. The experiment in a line: ITC.
As to chain 1 D172G, chain 1 E173P, the equilibrium dissociation constant (Kd) came out at 172 nM.

In another assay the parent is B3. The experiment in a line: BLI.
With chain 1 K171E, chain 1 S174D, the dissociation constant (Kd) was 84.4 nM.

A further assay covers variants of B4. Nature of the assay: BLI.
Consider chain 1 E171K, chain 1 D174S, for which the equilibrium dissociation constant (Kd) came to 178 nM. Regarding chain 1 D174S, the Kd is 136 nM.

Broadly, the Kd is the constant that tells how readily two partners part at equilibrium.
